Data on one protein can be found in PMC8569915 (ChemSusChem, 2021).

This series concerns the molecule itself. Briefly: SEC.

B1: [2SCC-(I9CL12C)2] (peptide)
chain: Ac-GIAALEQKCAACEEKNAALEWKIAALEKKG-NH2
modifications: cysteine pairing not given here
For B1, the “stoichiometry N” value amounted to 2.
